According to PMC11822394, “CsNAC17 enhances resistance to Colletotrichum gloeosporioides by interacting with CsbHLH62 in Camellia sinensis”:

T1: CsNAC17 (Camellia sinensis, UniProt A0A4S4ETT7 1-357)
T1 chain: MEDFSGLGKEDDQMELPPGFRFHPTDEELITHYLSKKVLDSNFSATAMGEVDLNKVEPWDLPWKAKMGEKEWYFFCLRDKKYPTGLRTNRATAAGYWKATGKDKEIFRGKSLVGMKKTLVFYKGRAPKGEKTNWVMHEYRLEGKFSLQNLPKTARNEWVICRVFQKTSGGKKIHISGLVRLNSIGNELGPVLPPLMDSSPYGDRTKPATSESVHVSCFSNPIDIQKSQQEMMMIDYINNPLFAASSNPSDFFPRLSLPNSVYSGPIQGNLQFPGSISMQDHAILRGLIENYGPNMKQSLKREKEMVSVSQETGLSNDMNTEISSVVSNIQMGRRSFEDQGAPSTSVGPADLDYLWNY


Molecular target: T1, CsNAC17
Experiment: EMSA; LightShift Chemiluminescent EMSA Kit; buffer, salt, pH and temperature not stated
Details: protein: recombinant; tags: GST (pGEX-6p-1); chain copies: 0; label: biotin (hot probe); blunt

Binder | binding result
ProCsRPM1-CATGTG probe (dsDNA) DNA 1: TTTTAGACATGTGTTTCCCA DNA 2: TGGGAAACACATGTCTAAAA | binds
ProCsRPM1-CACG probe (dsDNA) DNA 1: CTACGTAGCACGGTCCTATT DNA 2: AATAGGACCGTGCTACGTAG | binds
